Data on 94 variants can be found in the supplement of paper PMC10567573.

Sequences and labels used below:
B1: MYL5 (parent)
chain: FQFASIDVAGNLDYKALSYVITHG
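Note: lentivirally expressed fusions sorted by FACS into six bins by GFP to DsRed ratio, PSI derived from sequencing read proportions per bin multiplied by bin number.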

Variants of B1 are the subject of the data set. The data set can be described thus: protein stability index of a GFP-peptide fusion (GPS, HEK-293T) (PSI 1-6); higher = more stable. The settings on record: c terminus: a fixed tail appended.
With FQFASIDVAGNLDYKALSYTITHG [V20T], the protein stability index came out at 2.29. The value for FQFASIDVAGNLDYKALSYMITHG [V20M] was 1.49; that for FQFASIDVAGNLDYKALSYFITHG [V20F] was 3.64; that for FQFASIDVAGNLDYKALSYKITHG [V20K] was 2.23. On to FQFASIDVAGNLDYKALSYAITHG [V20A], for which the protein stability index amounted to 3.37.

On to FQFASIDVAGNLDYKALSYNITHG [V20N], for which the protein stability index stood at 1.7. With FQFASIDVAGNLDYKALSYQITHG [V20Q] the figure was 2.96; with FQFASIDVAGNLDYKALSYHITHG [V20H], 3.27; with FQFASIDVAGNLDYKALSYPITHG [V20P], 1.32. The value for FQFASIDVAGNLDYKALSYDITHG [V20D] was 1.34; that for FQFASIDVAGNLDYKALSYRITHG [V20R] was 2.46; that for FQFASIDVAGNLDYKALSYGITHG [V20G] was 2.81.

For the variant FQFASIDVAGNLDYKAHSYVITHG [L17H], the protein stability index was found to be 2.06. With FQFASIDVAGNLDYKAPSYVITHG [L17P] the figure was 2.35; with FQFASIDVAGNLDYKAWSYVITHG [L17W], 2.39; with FQFASIDVAGNLDYKADSYVITHG [L17D], 1.94.

Regarding FQFASIDVAGNLDYKAYSYVITHG [L17Y], the protein stability index came to 2.8. For FQFASIDVAGNLDYKANSYVITHG [L17N], the protein stability index was 1.39. For FQFASIDVAGNLDYKAFSYVITHG [L17F], the protein stability index is 2.71. Consider FQFASIDVAGNLDYKAASYVITHG [L17A], for which the protein stability index stood at 2.49.

As to FQFASIDVAGNLDYKACSYVITHG [L17C], the protein stability index was determined as 3.94. With FQFASIDVAGNLDYKAKSYVITHG [L17K], the protein stability index is 2.71. With FQFASIDVAGNLDYKAQSYVITHG [L17Q] the figure was 2.03; with FQFASIDVAGNLDYKATSYVITHG [L17T], 2.2. With FQFASIDVAGNLDYKASSYVITHG [L17S], the protein stability index came to 3.25. FQFASIDVAGNLDYKAMSYVITHG [L17M]: the protein stability index is 3.7.

FQFASIDVAGNLDYKAGSYVITHG [L17G]: the protein stability index is 2.72. As to FQFASIDVAGNLDYKAESYVITHG [L17E], the protein stability index amounted to 1.44. As for FQFASIDVAGNLDYKALSYVKTHG [I21K], the protein stability index worked out at 1.64. For FQFASIDVAGNLDYKALSYVGTHG [I21G], the protein stability index worked out at 2.37. In the case of FQFASIDVAGNLDYKALSYVHTHG [I21H], the protein stability index is 1.53. As for FQFASIDVAGNLDYKALSYVNTHG [I21N], the protein stability index is 1.93.

On to FQFASIDVAGNLDYKALSYVRTHG [I21R], for which the protein stability index was determined as 1.03. The value for FQFASIDVAGNLDYKALSYVATHG [I21A] was 2.79; that for FQFASIDVAGNLDYKALSYVPTHG [I21P] was 2.18.

In the case of FQFASIDVAGNLDYKALSYVETHG [I21E], the protein stability index worked out at 2.11. As to FQFASIDVAGNLDYKALSYVQTHG [I21Q], the protein stability index came out at 1.9. As to FQFASIDVAGNLDYKALSYVYTHG [I21Y], the protein stability index worked out at 1.65. FQFASIDVAGNLDYKALSYVMTHG [I21M]: the protein stability index amounted to 1.48. With FQFASIDVAGNLDYKALSYVSTHG [I21S] the figure was 1.72; with FQFASIDVAGNLDYKALSYVDTHG [I21D], 2.57; with FQFASIDVAGNLDYKALSYVTTHG [I21T], 1.54.

Regarding FQFASIDVAGNLDYKALSYVVTHG [I21V], the protein stability index was 2.26. The value for FQFASIDVAGNLDYKELSYVITHG [A16E] was 2.37; that for FQFASIDVAGNLDYKTLSYVITHG [A16T] was 2.44. Regarding FQFASIDVAGNLDYKQLSYVITHG [A16Q], the protein stability index worked out at 2.81. With FQFASIDVAGNLDYKLLSYVITHG [A16L], the protein stability index is 2.64.

Consider FQFASIDVAGNLDYKNLSYVITHG [A16N], for which the protein stability index amounted to 1.91. As to FQFASIDVAGNLDYKPLSYVITHG [A16P], the protein stability index was 5.11.

With FQFASIDVAGNLDYKVLSYVITHG [A16V], the protein stability index was 3.37. Turning to FQFASIDVAGNLDYKKLSYVITHG [A16K], the protein stability index was determined as 2.25. Take FQFASIDVAGNLDYKDLSYVITHG [A16D]: the protein stability index worked out at 3.18.

As for FQFASIDVAGNLDYKFLSYVITHG [A16F], the protein stability index came to 3.33. Turning to FQFASIDVAGNLDYKSLSYVITHG [A16S], the protein stability index was 2.11. For the variant FQFASIDVAGNLDYKALSKVITHG [Y19K], the protein stability index stood at 1.06. In the case of FQFASIDVAGNLDYKALSPVITHG [Y19P], the protein stability index stood at 1.43. The value for FQFASIDVAGNLDYKALSDVITHG [Y19D] was 1.53; that for FQFASIDVAGNLDYKALSVVITHG [Y19V] was 2.19.

Take FQFASIDVAGNLDYKALSMVITHG [Y19M]: the protein stability index was determined as 2.44. With FQFASIDVAGNLDYKALSFVITHG [Y19F], the protein stability index is 1.87.

On to FQFASIDVAGNLDYKALSSVITHG [Y19S], for which the protein stability index was 1.73. Turning to FQFASIDVAGNLDYKALSGVITHG [Y19G], the protein stability index amounted to 3.74. As to FQFASIDVAGNLDYKALSNVITHG [Y19N], the protein stability index amounted to 2.41. Regarding FQFASIDVAGNLDYKALSHVITHG [Y19H], the protein stability index stood at 2.35. The value for FQFASIDVAGNLDYKALSWVITHG [Y19W] was 2.69; that for FQFASIDVAGNLDYKALSRVITHG [Y19R] was 2.11. With FQFASIDVAGNLDYKALSEVITHG [Y19E], the protein stability index was found to be 2.89. With FQFASIDVAGNLDYKALSTVITHG [Y19T], the protein stability index worked out at 1.83. For the variant FQFASIDVAGNLDYKALSQVITHG [Y19Q], the protein stability index came out at 3.41. On to FQFASIDVAGNLDYKALSYVIQHG [T22Q], for which the protein stability index was found to be 2.54. With FQFASIDVAGNLDYKALSYVIDHG [T22D], the protein stability index stood at 1.8. With FQFASIDVAGNLDYKALSYVIMHG [T22M], the protein stability index amounted to 2.95. As for FQFASIDVAGNLDYKALSYVIHHG [T22H], the protein stability index was 3.83. With FQFASIDVAGNLDYKALSYVIIHG [T22I], the protein stability index was found to be 2.55.

Turning to FQFASIDVAGNLDYKALSYVICHG [T22C], the protein stability index was 2.52.

Take FQFASIDVAGNLDYKALSYVIKHG [T22K]: the protein stability index came to 2.22. Take FQFASIDVAGNLDYKALSYVIWHG [T22W]: the protein stability index was 4.39. As to FQFASIDVAGNLDYKALSYVIAHG [T22A], the protein stability index turned out to be 2.03.

As for FQFASIDVAGNLDYKALSYVIGHG [T22G], the protein stability index worked out at 3.98. Turning to FQFASIDVAGNLDYKALSYVINHG [T22N], the protein stability index amounted to 2.52. Take FQFASIDVAGNLDYKALSYVIEHG [T22E]: the protein stability index was 2.02. The value for FQFASIDVAGNLDYKALEYVITHG [S18E] was 1.56. On to FQFASIDVAGNLDYKALIYVITHG [S18I], for which the protein stability index was determined as 2.66.

Consider FQFASIDVAGNLDYKALMYVITHG [S18M], for which the protein stability index was determined as 3.46. The value for FQFASIDVAGNLDYKALDYVITHG [S18D] was 1.75.

As for FQFASIDVAGNLDYKALLYVITHG [S18L], the protein stability index was 1.83.

As for FQFASIDVAGNLDYKALKYVITHG [S18K], the protein stability index came out at 1.62. For FQFASIDVAGNLDYKALQYVITHG [S18Q], the protein stability index is 1.49. In the case of FQFASIDVAGNLDYKALSYVITHL [G24L], the protein stability index amounted to 3.92. In the case of FQFASIDVAGNLDYKALSYVITHT [G24T], the protein stability index amounted to 3.18. With FQFASIDVAGNLDYKALSYVITHA [G24A] the figure was 3; with FQFASIDVAGNLDYKALSYVITHQ [G24Q], 2.05. FQFASIDVAGNLDYKALSYVITHR [G24R]: the protein stability index turned out to be 3.26. For the variant FQFASIDVAGNLDYKALSYVITHF [G24F], the protein stability index was 2.42.
